Experimental data from patent US20040266687A1, “Compositions and methods comprising protein activated receptor antagonists” (priority 2002, published 2004).

T1: PAR-2 (Homo sapiens, UniProt P55085)
T1 construct: endogenous in cells; host or cells: HUVEC or HT29 colon carcinoma cells
T1 sequence (P55085 26-397): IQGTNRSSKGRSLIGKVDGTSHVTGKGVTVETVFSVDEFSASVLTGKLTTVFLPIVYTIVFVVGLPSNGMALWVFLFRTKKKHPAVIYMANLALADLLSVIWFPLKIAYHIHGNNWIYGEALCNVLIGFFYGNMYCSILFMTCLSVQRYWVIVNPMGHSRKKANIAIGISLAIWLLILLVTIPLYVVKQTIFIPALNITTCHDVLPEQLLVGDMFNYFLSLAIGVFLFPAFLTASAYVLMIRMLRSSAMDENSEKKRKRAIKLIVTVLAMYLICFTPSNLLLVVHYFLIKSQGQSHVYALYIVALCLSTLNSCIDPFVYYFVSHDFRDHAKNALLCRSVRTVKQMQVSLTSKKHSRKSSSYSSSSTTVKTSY

T2: PAR-1 (Homo sapiens, UniProt P25116)
T2 construct: endogenous in cells; host or cells: HUVEC or HT29 colon carcinoma cells
T2 sequence (P25116 22-425): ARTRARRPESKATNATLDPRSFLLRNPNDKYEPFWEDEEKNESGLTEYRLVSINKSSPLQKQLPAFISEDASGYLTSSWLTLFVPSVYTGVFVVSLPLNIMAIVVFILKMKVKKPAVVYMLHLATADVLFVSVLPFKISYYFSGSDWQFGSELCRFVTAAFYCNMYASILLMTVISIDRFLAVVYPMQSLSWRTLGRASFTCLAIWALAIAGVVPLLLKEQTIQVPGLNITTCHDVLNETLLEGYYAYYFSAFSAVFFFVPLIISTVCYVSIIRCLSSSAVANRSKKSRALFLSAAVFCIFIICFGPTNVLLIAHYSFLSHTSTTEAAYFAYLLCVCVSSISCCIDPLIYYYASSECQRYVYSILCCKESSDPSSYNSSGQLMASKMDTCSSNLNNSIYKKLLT

T3: Proteinase activated receptor-2 (PAR-2) (UniProt P55085 37-397, limits assumed)
T3 sequence (looked up): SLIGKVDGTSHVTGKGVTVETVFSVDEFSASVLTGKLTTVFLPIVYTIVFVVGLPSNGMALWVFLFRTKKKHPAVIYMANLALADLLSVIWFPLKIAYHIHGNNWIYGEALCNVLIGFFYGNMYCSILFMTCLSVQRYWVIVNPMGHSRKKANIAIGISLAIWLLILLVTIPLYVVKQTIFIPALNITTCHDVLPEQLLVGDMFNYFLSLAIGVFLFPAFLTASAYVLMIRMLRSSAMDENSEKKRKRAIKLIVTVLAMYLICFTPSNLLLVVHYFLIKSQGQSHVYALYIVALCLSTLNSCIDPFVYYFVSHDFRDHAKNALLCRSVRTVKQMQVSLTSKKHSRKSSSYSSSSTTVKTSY


Key:
PAR-2 [1] = target: T1, PAR-2; test: Inhibition of P2AP (SLIGKV)-stimulated PAR-2 signaling in cells pretreated with antagonist; type: cell-based; settings: result in words; cells pretreated with the substance, then P2AP
Protocol: (§1) Confluent HUVECs or HT29 colon carcinoma cells were loaded for 30-60 minutes with the fluorescent dye Fluo-4. Final concentration 4 uM Fluo-4, 0.02% pluronic acid in physiological buffer. Cells were then washed with assay buffer, (HBSS containing 1 mM CaCl2, 1 mM MgSO4, and 2.5 mM probenecid). Cells were stimulated with various doses of PAR-2 activating peptide, PAR-1 activating peptide or ATP.
(§2) Fluorescence was monitored using a Wallac 1470 fluorescent plate reader. (See Al-ani et. al Journal of Pharmacology and Experimental Therapeutics 290:2, 753-760)
In order to assess the potential of peptides selected above to block PAR-2 signaling, cells were pretreated with potential antagonist peptides for a predetermined amount of time and were subsequently treated with P2AP. Methods and protocols used were the same as those described in Example 1.

[2] = test system: ATP signaling (G-protein coupled receptors); test: Activation study with ATP on cells pretreated with antagonist; type: cell-based; settings: cells pretreated with the substance
Protocol: as §1, §2
(§3) Both of these molecules signal through G-protein coupled receptors, and PAR-1 is very highly homologous to PAR-2, to the degree that the PAR-1 agonist peptide can signal through PAR-2 at high concentrations.

[3] = Arthritis in mice (anti-collagen II antibody plus LPS), foot thickness; type: in vivo; settings: 200 mg/kg/day i.p. for 7 days, Balb/c mice, FIG. 19
Protocol: On day 0, Balb/c mice were injected IV with the 1 -2 mg 1B11 monoclonal anti-collagen II antibody. On day 1, animals were injected i.p with 20 ug LPS, and treatment with PAR-2 antagonists (200 mg/kg/day i.p). for 7 days is initiated. After treatment was completed, disease is quantified by measuring the thickness (swelling) in both feet of the mouse. This was compared to untreated mice. (p<0.05 vs. vehicle control)

PAR-1 = target: T2, PAR-1; test: Activation study with PAR-1 activation peptide SFLLRN on cells pretreated with antagonist; type: cell-based; settings: cells pretreated with the substance
Protocol: as §1, §2, §3

Lewis lung carcinoma = Lewis lung carcinoma (LLC) experimental metastatic model; type: in vivo, mice; settings: metastatic tumor growth studies, FIG. 16
Protocol: In this tumor growth model, treatments were initiated on day 3 post inoculation, after tumor cells had homed to the lung, and started growing. […] At a dose of 4 mg/day tumor growth was inhibited by 75%. […] C57/B16 mice were injected i.v. with Lewis lung carcinoma. 3 days later, treatment of lung tumors was started with i.p. LIGK (SEQ ID NO:1) for 11 days.

PAR-2 [4] = target: T1, PAR-2; test: PAR signalling activity: calcium mobilization (Fluo-4) in response to peptides; type: cell-based; settings: result in words, FIG. 4A-4C
Protocol: as §1, §2
Calcium mobilization curves of the PAR-2 agonist SLIGKV (SEQ ID NO:25) compared with two truncated molecules LIGK (SEQ ID NO:1) and LIGKV (SEQ ID NO:2) are provided in FIG. 4A. […] Similar studies were performed on alanine substituted SLIGKV (SEQ ID NO:25) peptides (FIGS. 4B and 4C).

[5] = target: T3, Proteinase activated receptor-2 (PAR-2); test: cell-based or functional assay

antagonist activity on PAR-2 signaling (PAR-2 [1]) | Molecule | calcium mobilization / signaling activity (PAR-2 [4]) | also measured
extremely potent inhibitor | Br.CC(C)CC(=O)N1CCN(C(=O)CCCCCN)CC1 [ENMD-547] |  | inhibitory effect on signaling by ATP [2]: no inhibitory effects; inflammation (arthritis, foot swelling) [3]: inhibited inflammation; inhibitory effect on signaling by PAR-1 (activation peptide SFLLRN) (PAR-1): no inhibitory effects; antitumor activity relative to the parental LIGK molecule (Lewis lung carcinoma): approximately five fold
demonstrated antagonist activity | LIGKV | Neither truncated molecule was able to induce calcium mobilization | 
 | SLIAKV [alanine substituted SLIGKV peptide] | robust signaling activity | 
 | SLIGKA [alanine substituted SLIGKV peptide] | robust signaling activity | 
 | SLIGKV (listed as Homo sapiens) [reference compound] | typical spike of calcium release followed by degradation of signal | 
 | LIGK [LIGK (SEQ ID NO:1)] |  | IC50 of inhibition of PAR-2 signaling (calcium mobilization stimulated by SLIGKV) [5]: < 500 µM
